Test [1] addresses T1, CDTb_(D1–D4) monomer (residues 43–876) (Clostridioides difficile, strain not …).
T1 construct: also called full-length (pro) CDTb; pro-CDTb
T1 chain: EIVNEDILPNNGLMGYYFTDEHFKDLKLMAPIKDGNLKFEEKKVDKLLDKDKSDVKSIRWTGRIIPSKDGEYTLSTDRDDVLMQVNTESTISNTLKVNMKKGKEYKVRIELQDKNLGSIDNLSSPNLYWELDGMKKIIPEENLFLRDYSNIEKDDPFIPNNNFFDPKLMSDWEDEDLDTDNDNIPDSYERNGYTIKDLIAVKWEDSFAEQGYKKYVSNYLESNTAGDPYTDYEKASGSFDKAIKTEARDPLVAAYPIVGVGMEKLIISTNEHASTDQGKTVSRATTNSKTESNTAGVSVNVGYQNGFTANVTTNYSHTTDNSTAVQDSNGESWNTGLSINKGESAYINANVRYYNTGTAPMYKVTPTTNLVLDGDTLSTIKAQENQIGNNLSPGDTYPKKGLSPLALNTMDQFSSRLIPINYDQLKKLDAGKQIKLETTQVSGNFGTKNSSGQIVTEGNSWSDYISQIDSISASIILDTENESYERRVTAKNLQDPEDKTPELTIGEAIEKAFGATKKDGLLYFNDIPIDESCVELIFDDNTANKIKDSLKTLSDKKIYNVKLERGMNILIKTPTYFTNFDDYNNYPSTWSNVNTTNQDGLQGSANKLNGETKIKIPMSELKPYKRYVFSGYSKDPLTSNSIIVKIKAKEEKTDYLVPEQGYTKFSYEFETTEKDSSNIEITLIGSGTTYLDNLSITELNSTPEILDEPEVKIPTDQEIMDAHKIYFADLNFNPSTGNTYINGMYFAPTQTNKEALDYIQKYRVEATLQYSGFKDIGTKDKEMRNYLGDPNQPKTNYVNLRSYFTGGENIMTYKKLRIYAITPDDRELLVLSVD
As to the kind of experiment: SPR; Carterra LSA^XT, SAHC30M chip, 25 °C; biotinylated Nbs captured at eight densities; CDTb constructs injected at 0.3–300 nM (fourfold dilutions) without regeneration; HBS-T (10 mM HEPES pH 7.4, 150 mM NaCl, 0.05% Tween-20) with 0.5 mg/ml BSA; one-to-one kinetics model. The following applies: both partners purified.

For test [2], the target named is T2, native CDTb protein in cecal contents of mice infected with C. difficile R20291 (Clostridioides difficile R20291, UniProt A0A9R0BM17, strain).
T2 construct: CDTb made by C. difficile R20291 during infection of mice; source: endogenous, C. difficile R20291, in cecal material of infected mice
As to the kind of experiment: ELISA; sandwich ELISA on cecal material of mice infected with R20291 (diluted to 10 mg/ml in PBS-T + 2% BSA): native CDTb bound by the coated capture Nb. Particulars: one partner purified. On the technique in general: An ELISA detects its analyte on a solid surface through an enzyme-linked reagent.

Test [3] deals with T3, activated monomeric CDTb (75 kDa-activated monomer) (Clostridioides difficile).
T3 construct: source: recombinant pro-CDTb trypsinized in vitro, purified (SEC)
T3 chain: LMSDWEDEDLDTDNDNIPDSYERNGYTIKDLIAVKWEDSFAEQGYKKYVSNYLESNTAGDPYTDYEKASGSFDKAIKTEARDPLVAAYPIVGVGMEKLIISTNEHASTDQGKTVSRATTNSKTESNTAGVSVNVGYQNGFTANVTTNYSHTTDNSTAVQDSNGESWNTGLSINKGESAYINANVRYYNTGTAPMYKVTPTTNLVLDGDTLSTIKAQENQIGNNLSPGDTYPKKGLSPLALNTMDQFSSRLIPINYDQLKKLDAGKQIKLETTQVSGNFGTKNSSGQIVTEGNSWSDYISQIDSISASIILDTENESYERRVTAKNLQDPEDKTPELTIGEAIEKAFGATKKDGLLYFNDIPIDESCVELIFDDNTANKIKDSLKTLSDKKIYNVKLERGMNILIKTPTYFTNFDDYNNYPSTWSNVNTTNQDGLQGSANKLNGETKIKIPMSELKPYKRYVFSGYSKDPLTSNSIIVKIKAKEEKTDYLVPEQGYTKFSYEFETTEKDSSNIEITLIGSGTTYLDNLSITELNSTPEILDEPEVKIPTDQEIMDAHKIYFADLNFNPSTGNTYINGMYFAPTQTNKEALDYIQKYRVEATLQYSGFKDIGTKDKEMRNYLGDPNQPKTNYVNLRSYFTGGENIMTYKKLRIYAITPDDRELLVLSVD
As to the kind of experiment: ELISA; sandwich ELISA: nonbiotinylated capture Nb coated (200 ng/well), purified CDTb (activated monomer or heptameric sample) in PBS-T + 2% BSA, biotinylated detection Nb (50 ng/well), streptavidin-HRP; room temperature. Particulars: both partners purified.

The target of test [4] is T4, CDTbD3′ (Clostridioides difficile, strain not …).
T4 chain: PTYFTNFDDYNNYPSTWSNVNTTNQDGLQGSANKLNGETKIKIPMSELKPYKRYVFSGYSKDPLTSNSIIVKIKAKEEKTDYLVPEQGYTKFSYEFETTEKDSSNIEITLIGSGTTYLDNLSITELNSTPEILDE
The experiment in a line: SPR; Carterra LSA^XT, SAHC30M chip, 25 °C; biotinylated Nbs captured at eight densities; CDTb constructs injected at 0.3–300 nM (fourfold dilutions) without regeneration; HBS-T (10 mM HEPES pH 7.4, 150 mM NaCl, 0.05% Tween-20) with 0.5 mg/ml BSA; one-to-one kinetics model. Particulars: both partners purified. In general terms: Surface plasmon resonance follows binding to a sensor surface in real time, without labels.

Test [5] deals with T5, CDTb_(D2–D3′) (210–749) (Clostridioides difficile, strain not …, UniProt O32739). The experiment in a line: SPR; […] (10 mM HEPES pH 7.4, 150 mM NaCl, 0.05% Tween-20) with 0.5 mg/ml BSA; […]. The following applies: both partners purified.
Test [6] concerns the target T6, CDTbD4 (760–876) (Clostridioides difficile, strain not …, UniProt O32739).
T6 construct: also called domain 4
The experiment in a line: SPR; Carterra LSA^XT, SAHC30M chip, 25 °C; biotinylated Nbs captured at eight densities; CDTb constructs injected at 0.3–300 nM (fourfold dilutions) without regeneration; HBS-T (10 mM HEPES pH 7.4, 150 mM NaCl, 0.05% Tween-20) with 0.5 mg/ml BSA; one-to-one kinetics model. The following applies: both partners purified.

Test [7] has as its target T5, CDTb_(D2–D3′) (210–749). The experiment in a line: SPR; […] (10 mM HEPES pH 7.4, 150 mM NaCl, 0.05% Tween-20) with 0.5 mg/ml BSA; […]. Particulars: both partners purified. The source holds these as a separate data set.
The target of test [8] is T6, CDTbD4 (760–876). The experiment in a line: SPR; Carterra LSA^XT, SAHC30M chip, 25 °C; biotinylated Nbs captured at eight densities; CDTb constructs injected at 0.3–300 nM (fourfold dilutions) without regeneration; HBS-T (10 mM HEPES pH 7.4, 150 mM NaCl, 0.05% Tween-20) with 0.5 mg/ml BSA; one-to-one kinetics model. Particulars: both partners purified. This is another data set of the same source.

Test [9] deals with T3, activated monomeric CDTb (75 …). As to the kind of experiment: cell-based or functional assay.
Test [10] addresses T2, native CDTb protein in cecal contents …. The experiment in a line: ELISA; sandwich ELISA on cecal material of mice infected with R20291: biotinylated detection Nb on the captured native CDTb. The following applies: one partner purified.
The target in test [11] is T4, CDTbD3′. As to the kind of experiment: SPR; Carterra LSA^XT, SAHC30M chip, 25 °C; biotinylated Nbs captured at eight densities; CDTb constructs injected at 0.3–300 nM (fourfold dilutions) without regeneration; HBS-T (10 mM HEPES pH 7.4, 150 mM NaCl, 0.05% Tween-20) with 0.5 mg/ml BSA; one-to-one kinetics model. Particulars: both partners purified.
The target of test [12] is T1, CDTb_(D1–D4) monomer (residues 43–876).
For test [13], the target named is T4, CDTbD3′.

The results in this text go back to publication PMC12828747, “Nanobodies against Clostridioides difficile CDTb provide a toolkit for potent toxin neutralization and highly sensitive quantitation” (The Journal of Biological Chemistry, 2025).

Read-outs that look alike come from different tables or passages of the source.

B1: Nb G2 (VHH)
VHH: QVQLQESGGGLVQPGGSLTLSCKASGIVFSTHTLAWYRQAPGKHRNVLAVITSAGIPNYDTDLKGRFTISRDNAKNTVYLQMNSLEPEDTAVYYCNARGPHPTVTGTTANYWGQGTQVTVSS
notes: also called C1G2; source: Expi293F, transfected, purified from supernatant (TALON resin)
As usually defined, the Kd is the concentration at which binding is half-saturated. The term koff denotes the rate constant with which the complex falls apart. Higher therefore signals a short-lived complex. In general, kon refers to the second-order rate constant of association. On to B1, for which the Kd in test [1] is not above 0.029 nM; in [4], 0.18 nM; in [5] it was not above 0.022 nM. Further, the figures for the koff in test [1], in test [4] and in [5] were not above 1e-05 s⁻¹, 4.1e-05 s⁻¹ and not above 1e-05 s⁻¹, respectively. Also, the values for the on-rate (kon) in test [1], in [4] and in test [5] were 380000 M⁻¹ s⁻¹, 240000 M⁻¹ s⁻¹ and 480000 M⁻¹ s⁻¹, respectively. Besides, the binding result is recorded as “binds” in test [2], “binds” in test [3] and “no binding” in [6].

B2: Nb H12 (VHH)
VHH: QVQLQESGGGLVQPGGSLRLSCAASGDIFSFYTMGWYRQAPGKQRELVATITSPGTTNYADSVKGRFTISRDNAKNMVYLQMTSLKPEDTAVYYCNADRILTTDPQFKYWGQGTQVTVSS
notes: also called C1H12; source: Expi293F, transfected, purified from supernatant (TALON resin)
As for B2, the figures for the Kd in test [1] and in test [8] were 0.05 nM and 0.042 nM, respectively. Further, the dissociation rate constant (koff) in test [1] was 6.7e-05 s⁻¹; in test [8], 0.00013 s⁻¹. The results for the kon in test [1] and in test [8] were 1.4e+06 M⁻¹ s⁻¹ and 3.1e+06 M⁻¹ s⁻¹, respectively. Also, the binding result in test [7] was “no binding”; in test [10], “binds”; in test [11], “no binding”. Besides, the “EC50 of neutralization of CDT-induced rounding of Vero-GFP cells (1 nM CDTa + 7 nM activated monomeric CDTb, Nb 0.6–100 nM, 3 h postintoxication)” value in test [9] was approximately 6 nM.

B3: C1G1 (VHH)
VHH: QVQLQESGGGLVQPGGSLTLSCAASGSIGSGSVMSWYRQAPGKERELVAQESGGRLRSYAKSVMGRFTISRDNSNNTVTLQMNNLKTDDTAIYYCHLVQFSGRYWGHGTQVTGS
As for B3, the binding result in [12] and in test [13] was “binds” in each case.
